According to patent publication US20230383269A1 (DSM AUSTRIA, published 2023):
Numbering of substitutions follows the chain as printed. Names may count otherwise.

B1: alpha/beta hydrolase variant of SEQ ID NO: 10 (R155K, N167T, S174C, V175A) (enzyme)
chain: MTDQSPETRDIFVPHAFEEQQVDLGEVVMNYVEAGSADHPALLLLPEQTGSWWSYEPVIGLLAESFHVFAVDIRGQGRSTWTPKRYSLDNFGNDLVRFISLVVKRPVIVSGNSSGGVLAAWLSAYAMPGQIRAALCEDTPFFASELVPAHGHSVKQAAGPAFELYRTFLGDQWCAADWDGFAAAAKASPSKIMSLFPSSDEPPQNLKEYDPEWARAFFEGTVALHCPHDLMLSQVKTPILITHHARAVDPHSGDLLGALSDFQAERAQAIIESAGVPVEYASFPDALHMMHQFEPERFAEVLTSWVARLPADTPGAHHHHHH
notes: homo-tetramer; also called zearalenone-cleaving polypeptide
B2: alpha/beta hydrolase variant of SEQ ID NO: 5 (N167A) (enzyme)
chain: B1 chain with K155R, T167A, C174S, A175V
notes: as for B1
B3: alpha/beta hydrolase variant of SEQ ID NO: 28 (N167T, F168Y, S174C, D179E, A182C, A183R, K186R, A187R, F218Y L230R) (enzyme)
chain: B1 chain with K155R, F168Y, A175V, D179E, A182C, A183R, K186R, A187R, F218Y, L230R
notes: as for B1
B4: alpha/beta hydrolase variant of SEQ ID NO: 26 (T139P N167T, F168Y, S174C, D179E, A182C, A183R, K186R, A187R, F218Y) (enzyme)
chain: B1 chain with T139P, K155R, F168Y, A175V, D179E, A182C, A183R, K186R, A187R, F218Y
notes: as for B1
B5: alpha/beta hydrolase variant of SEQ ID NO: 2 (N167T, F168Y, S174C, F218Y) (enzyme)
chain: B1 chain with K155R, F168Y, A175V, F218Y
notes: as for B1
B6: alpha/beta hydrolase variant of SEQ ID NO: 15 (N167T, F168Y, S174C, D179E, A182C, A183R, K186R, A187R, F218Y) (enzyme)
chain: B1 chain with K155R, F168Y, A175V, D179E, A182C, A183R, K186R, A187R, F218Y
notes: as for B1
B7: alpha/beta hydrolase variant of SEQ ID NO: 12 (N167S, S174C) (enzyme)
chain: B1 chain with K155R, T167S, A175V
notes: as for B1
B8: alpha/beta hydrolase variant of SEQ ID NO: 6 (N167C) (enzyme)
chain: B1 chain with K155R, T167C, C174S, A175V
notes: as for B1
B9: alpha/beta hydrolase variant of SEQ ID NO: 24 (F69Y, N167T, F168Y, S174C, D179E, A182C, A183R, K186R, A187R, F218Y) (enzyme)
chain: B1 chain with F69Y, K155R, F168Y, A175V, D179E, A182C, A183R, K186R, A187R, F218Y
notes: as for B1
B10: alpha/beta hydrolase variant of SEQ ID NO: 19 (V28T, N167T, F168Y, S174C, D179E, A182C, A183R, K186R, A187R, F218Y) (enzyme)
chain: B1 chain with V28T, K155R, F168Y, A175V, D179E, A182C, A183R, K186R, A187R, F218Y
notes: as for B1
B11: alpha/beta hydrolase variant of SEQ ID NO: 33 (N167T, F168Y, S174C, D179E, A182C, A183R, K186R, A187R, F218Y, S293S) (enzyme)
chain: B1 chain with K155R, F168Y, A175V, D179E, A182C, A183R, K186R, A187R, F218Y, F293S
notes: as for B1
B12: alpha/beta hydrolase variant of SEQ ID NO: 30 (N167T, F168Y, S174C, D179E, A182C, A183R, K186R, A187R, F218Y, H251E) (enzyme)
chain: B1 chain with K155R, F168Y, A175V, D179E, A182C, A183R, K186R, A187R, F218Y, H251E
notes: as for B1
B13: alpha/beta hydrolase variant of SEQ ID NO: 27 (N167T, F168Y, S174C, D179E, A182C, A183R, K186R, A187R, F218Y, H225S) (enzyme)
chain: B1 chain with K155R, F168Y, A175V, D179E, A182C, A183R, K186R, A187R, F218Y, H225S
notes: as for B1
B14: alpha/beta hydrolase variant of SEQ ID NO: 25 (A126S, N167T, F168Y, S174C, D179E, A182C, A183R, K186R, A187R, F218Y) (enzyme)
chain: B1 chain with A126S, K155R, F168Y, A175V, D179E, A182C, A183R, K186R, A187R, F218Y
notes: as for B1
B15: alpha/beta hydrolase variant of SEQ ID NO: 14 (N167T, F168Y, S174C) (enzyme)
chain: B1 chain with K155R, F168Y, A175V
notes: as for B1
B16: alpha/beta hydrolase variant of SEQ ID NO: 3 (N167T) (enzyme)
chain: B1 chain with K155R, C174S, A175V
notes: as for B1
B17: alpha/beta hydrolase variant of SEQ ID NO: 4 (N167S) (enzyme)
chain: B1 chain with K155R, T167S, C174S, A175V
notes: as for B1
B18: alpha/beta hydrolase variant of SEQ ID NO: 9 (N167T, S174C) (enzyme)
chain: B1 chain with K155R, A175V
notes: as for B1
B19: alpha/beta hydrolase variant of SEQ ID NO: 34 (N167T, F168Y, S174C, D179E, A182C, A183R, K186R, A187R, F218Y, S304R) (enzyme)
chain: B1 chain with K155R, F168Y, A175V, D179E, A182C, A183R, K186R, A187R, F218Y, S304R
notes: as for B1
B20: alpha/beta hydrolase variant of SEQ ID NO: 20 (H39R, N167T, F168Y, S174C, D179E, A182C, A183R, K186R, A187R, F218Y) (enzyme)
chain: B1 chain with H39R, K155R, F168Y, A175V, D179E, A182C, A183R, K186R, A187R, F218Y
notes: as for B1
B21: alpha/beta hydrolase variant of SEQ ID NO: 11 (R155K, N167T, S174C, V175T) (enzyme)
chain: B1 chain with A175T
notes: as for B1
B22: alpha/beta hydrolase variant of SEQ ID NO: 13 (N167T, S174C, F218Y) (enzyme)
chain: B1 chain with K155R, A175V, F218Y
notes: as for B1
B23: alpha/beta hydrolase variant of SEQ ID NO: 17 (D10N, N167T, F168Y, S174C, D179E, A182C, A183R, K186R, A187R, F218Y) (enzyme)
chain: B1 chain with D10N, K155R, F168Y, A175V, D179E, A182C, A183R, K186R, A187R, F218Y
notes: as for B1
B24: alpha/beta hydrolase variant of SEQ ID NO: 7 (N167L) (enzyme)
chain: B1 chain with K155R, T167L, C174S, A175V
notes: as for B1
B25: alpha/beta hydrolase variant of SEQ ID NO: 31 (N167T, F168Y, S174C, D179E, A182C, A183R, K186R, A187R, F218Y, A281E) (enzyme)
chain: B1 chain with K155R, F168Y, A175V, D179E, A182C, A183R, K186R, A187R, F218Y, A281E
notes: as for B1
B26: alpha/beta hydrolase variant of SEQ ID NO: 29 (N167T, F168Y, S174C, D179E, A182C, A183R, K186R, A187R, F218Y, A245V) (enzyme)
chain: B1 chain with K155R, F168Y, A175V, D179E, A182C, A183R, K186R, A187R, F218Y, A245V
notes: as for B1
B27: alpha/beta hydrolase variant of SEQ ID NO: 8 (N167T, S174T) (enzyme)
chain: B1 chain with K155R, C174T, A175V
notes: as for B1
B28: alpha/beta hydrolase variant of SEQ ID NO: 16 (N167T, F168Y, S174C, D179E, A182C, A183R, K186R, A187R, F218Y, Q268L, V306I) (enzyme)
chain: MTDQSPETRDIFVPHAFEEQQVDLGEVVMNYVEAGSADHPALLLLPEQTGSWWSYEPVIGLLAESFHVFAVDIRGQGRSTWTPKRYSLDNFGNDLVRFISLVVKRPVIVSGNSSGGVLAAWLSAYAMPGQIRAALCEDTPFFASELVPAHGHSVRQAAGPAFELYRTYLGDQWCVADWEGFCRAARRSPSKIMSLFPSSDEPPQNLKEYDPEWARAFYEGTVALHCPHDLMLSQVKTPILITHHARAVDPHSGDLLGALSDFQAERALAIIESAGVPVEYASFPDALHMMHQFEPERFAEVLTSWIARLPADTPGAHHHHHH
notes: as for B1
B29: alpha/beta hydrolase variant of SEQ ID NO: 21 (E47S, G50E, N167T, F168Y, S174C, D179E, A182C, A183R, K186R, A187R, F218Y) (enzyme)
chain: B28 chain with E47S, G50E, L268Q, I306V
notes: as for B1
B30: alpha/beta hydrolase variant of SEQ ID NO: 22 (P57E, V58A, I59M, N167T, F168Y, S174C, D179E, A182C, A183R, K186R, A187R, F218Y) (enzyme)
chain: B28 chain with P57E, V58A, I59M, L268Q, I306V
notes: as for B1
B31: alpha/beta hydrolase variant of SEQ ID NO: 32 (N167T, F168Y, S174C, D179E, A182C, A183R, K186R, A187R, F218Y, L287T, M289S) (enzyme)
chain: B28 chain with L268Q, L287T, M289S, I306V
notes: as for B1
B32: alpha/beta hydrolase variant of SEQ ID NO: 23 (A63S, S65H, N167T, F168Y, S174C, D179E, A182C, A183R, K186R, A187R, F218Y) (enzyme)
chain: B28 chain with A63S, S65H, L268Q, I306V
notes: as for B1
B33: alpha/beta hydrolase variant of SEQ ID NO: 18 (F17Y, I59M, N167T, F168Y, S174C, D179E, A182C, A183R, K186R, A187R, F218Y) (enzyme)
chain: B28 chain with F17Y, I59M, L268Q, I306V
notes: as for B1

Molecular target: the molecule itself
Assay: Blue-Native-PAGE, oligomeric conformation (self-association of identical chains)
From the text: Comparison of the native molecular weight (oligomeric conformation) between single purified zearalenone-cleaving polypeptides was done via Blue-Native-PAGE. Dilutions of the elutes were supplied with not denaturating loading dye (e.g. 2× loading dye: 0.126 M tris(hydroxymethyl)aminomethan/hydrochloric acid pH 6.8, 20.0% glycerol, 4.0% Coomassie Blue G-250) and separated on a 4-15% polyacrylamid gel under native conditions (e.g. Mini-PROTEAN® Tetra Cell System, 1658004EDU+4-15% Mini-PROTEAN® TGX™ Precast Protein Gels, 4561083EDU, Bio-Rad Laboratories GmbH) (5× Anode Buffer: 0.125 M Tris(hydroxymethyl)aminomethane, 0.960 M Glycine, 1× Kathode Buffer: Anode Buffer+0.02% Coomassie Blue G250; 200 V, 40 minutes). The peptide bands were visualized by Coomassie staining. The oligomeric state of selected zearalenone-cleaving polypeptides was determined by size exclusion chromatography, SEC-MALS or X-Ray crystallography. Homo-dimers (e.g. SEQ ID NO. 1) migrated faster across the BN-PAGE gel matrix, while homo-tetramers (e.g. SEQ ID NO. 2-35) were retained in the gel matrix to a higher extent. The oligomeric conformation of the zearalenone-cleaving polypeptides was determined relatively to the migration of homo-dimeric and homo-tetrameric peptides.

Binding result, binds:
B1, B2, B3, B4, B5, B6, B7, B8, B9, B10, B11, B12, B13, B14, B15, B16, B17, B18, B19, B20, B21, B22, B23, B24, B25, B26, B27, B28, B29, B30, B31, B32, B33
